Patent US20020045215A1

Target: Epidermal growth factor receptor of HCT-116 cells (human (HCT-116, a human colon cancer cell line)) (UniProt P00533)
Experiment: cell-based or functional assay

- EGF-R Tyr-K activity in HCT-116 cells (reduction against cells exposed to MBP alone or control cells): 80 to 90%
Substance: ERRP fusion protein bound to MBP (from UniProt Q01279 25-448)
